Literature values in paper PMC8463877.
pKd: −log10 of the molar value.

Experiments:
[1] = biological target: apoC-II fibrils (Homo sapiens) (UniProt P02655)
[2] = biological target: Aβ42 fibrils Aβ1-42 (Homo sapiens) (UniProt P05067)
Aβ42 fibrils Aβ1-42 (Homo sapiens), sequence (P05067 1-42): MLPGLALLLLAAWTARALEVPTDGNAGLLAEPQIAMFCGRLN

αB-crystallin, sequence (P02511 whole entry): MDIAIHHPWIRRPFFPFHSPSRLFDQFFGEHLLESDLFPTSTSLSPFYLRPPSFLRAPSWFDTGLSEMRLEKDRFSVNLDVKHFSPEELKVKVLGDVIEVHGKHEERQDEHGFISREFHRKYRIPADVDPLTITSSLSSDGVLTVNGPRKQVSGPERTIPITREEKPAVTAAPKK
apoC-II fibrils (Homo sapiens), sequence (P02655 23-101): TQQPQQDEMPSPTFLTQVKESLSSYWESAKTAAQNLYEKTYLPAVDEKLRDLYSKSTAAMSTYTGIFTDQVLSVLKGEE

pKd [1]: 5.27 | pKd [2]: 5.68
Substance: αB-crystallin (from UniProt P02511)
